Assay results: US20240285785A1, “TARGETING SORTILIN” (priority 2022, published 2024)

Assays:
[1] = Maximum tolerated dose (MTD) study; format: in vivo, BALB/c Nude mice; conditions: for body weight loss: after 48 hrs
Method: BALB/c Nude mice, female, 6-8 weeks, weighing approximately 18-22 g were purchased from the Shanghai SLAC Laboratory Animal Co., LTD. MTD studies were conducted at WuXi AppTec and the care and use of animals was conducted in accordance with the regulations of the Association for Assessment and Accreditation of Laboratory Animal Care (AAALAC). Two MTD studies were performed (a) a low dose study with doses ranging from 0.1, 0.5, 1 and 3 mg/kg and (b) a high dose study with doses ranging from 3, 5, 10 mg/kg. Dosing volume was determined based on body weight (10 ul/g) and PDCs were dissolved in 25 mM Histidine 10% sucrose pH 7 and administered i.v. at a single dose at day 0. The treatment and observation were conducted up to 7 days and MTD was defined by ≥20% body weight loss. Body weights were measured daily, death and observed clinical signs were recorded.
Doses of 3, 5, and 10 mg/kg were administered. MTD was defined by ≥20% body weight loss and body weight measured daily.

[2] = Murine hematotoxicity assay; format: in vivo, BALB/c mice; conditions: 3 mg/kg i.v. QW×4, compared to vehicle or MMAE treatment
Method: Murine hematotoxicity experiments were conducted at Charles River Laboratories and the care and use of animals was conducted in accordance with the regulations of the Association for Assessment and Accreditation of Laboratory Animal Care (AAALAC). Wild type BALB/c, female, 7-8 weeks, weighing approximately 18-22 g were randomized and dosed intravenously with control or test articles at a QW×4 schedule. Dosing volume was adjusted based on body weight and was administered at 10 mL/Kg. PDCs were dissolved in 25 mM Histidine 10% sucrose pH 7 and 3 mg/kg was administered. Free MMAE payload was also tested, and similarly dissolved in 25 mM Histidine 10% sucrose pH 7 and administered to the mice at a dose of […] by i.v. injection at a QW×4 schedule. 3 days following each dose, 150 μL of whole blood was collected via submandibular method and placed in K2 EDTA tubes stored on ice. Blood neutrophil counts were performed on the day of collection by IDEXX labs. Body weights were recorded twice a week until study endpoint.
As outlined in the material and methods of Example 1, wild type BALB/c, female, 7-8 weeks, weighing approximately 18-22 g were randomized and dosed intravenously with control or test articles at a QW×4 schedule. Dosing volume was adjusted based on body weight and was administered at 10 ml/Kg. […] Free MMAE payload was also tested, and similarly dissolved in 25 mM Histidine 10% sucrose pH 7 and administered to the mice at a dose of […] by i.v. injection at a QW×4 schedule. 3 days following each dose, 150 μL of whole blood was collected via submandibular method and placed in K2 EDTA tubes stored on ice. Blood neutrophil counts were performed on the day of collection by IDEXX labs. Body weights were recorded twice a week until study endpoint.

CC[C@H](C)[C@@H]([C@@H](CC(=O)N1CCC[C@H]1[C@H](OC)[C@@H](C)C(=O)N[C@H](C)[C@@H](O)c1ccccc1)OC)N(C)C(=O)[C@@H](NC(=O)[C@H](C(C)C)N(C)C(=O)OCc1ccc(NC(=O)[C@H](CCCNC(N)=O)NC(=O)[C@@H](NC(=O)CCCC(=O)NCCC(=O)N(C)CC(=O)N(C)CC(=O)N(C)CC(=O)N(C)CC(=O)N[C@@H](C)C(=O)N2CCC[C@H]2C(=O)N[C@@H](CCCNC(=N)N)C(=O)N[C@@H](Cc2c[nH]c3ccccc23)C(=O)N[C@@H](CC(=O)O)C(=O)N[C@@H](C)C(=O)N2CCC[C@H]2C(=O)N[C@@H](CC(C)C)C(=O)N[C@@H](CCCNC(=N)N)C(=O)N[C@@H](CC(=O)O)C(=O)N2CCC[C@H]2C(=O)N[C@@H](C)C(=O)N[C@@H](CC(C)C)C(=O)N[C@@H](CCCNC(=N)N)C(=O)N[C@@H](CCC(N)=O)C(=O)N[C@@H](CC(C)C)C(=O)N[C@@H](CC(C)C)C(=O)O)C(C)C)cc1)C(C)C [PRGN_WT_PDC]
body weight loss ([1]; 5 mg/kg single i.v. dose, recovered at Day 7): ~15%
toxicity ([1]; 10 mg/kg single i.v. dose): significant toxicity
body weight loss ([1]; 10 mg/kg single i.v. dose): greater than 20%
blood neutrophil counts [2]: reduced neutrophil counts
